Source: US20250264433A1 (STATE OF ISRAEL MINISTRY OF AGRICULTURE AND RURAL …, published 2025)

Target: Native EspB of wild-type EPEC O127:H6 strain E2348/69
Sequence (Q05129 whole entry): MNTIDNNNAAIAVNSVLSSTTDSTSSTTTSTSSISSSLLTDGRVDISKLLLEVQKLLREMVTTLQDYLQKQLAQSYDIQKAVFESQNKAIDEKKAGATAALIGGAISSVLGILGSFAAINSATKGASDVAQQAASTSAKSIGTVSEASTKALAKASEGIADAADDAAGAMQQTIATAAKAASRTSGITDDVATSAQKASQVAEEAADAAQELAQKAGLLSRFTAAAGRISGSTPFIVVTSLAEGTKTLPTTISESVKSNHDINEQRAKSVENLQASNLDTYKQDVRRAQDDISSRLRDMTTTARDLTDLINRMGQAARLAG

B1: mAb-EspB-B7 (antibody, V domains shown)
VH: EVQLLESGGGLVQPGGSLRLSCAASGFTFSHYAMNWVRQAPGKGLEWVSAINSNGDSTYYPDTVKDRFTISRDNSKNTLYLQMNSLRAEDTAVYYCARDRRAGYFDYWGQGTLVTVSS
VL: DIVLTQPPSASGTPGQRVTISCSGSRDNIGKNYVSWYQQLPGTAPKLLIYRNNQRPSGVPDRFSGSKSGTSASLAISGLRSEDEADYYCSAWDTSLNAYVFGPGTQLTVL
notes: also called mAb-B7; anti-EspB antibody
  signal for EPEC WT relative to the ΔespB strain: 36%
